Measurements from patent US6365356B1, “Receptors that regulate cell signaling relating to chemokines” (Cornell Research Foundation, Inc., priority 1999, dated 2002).

Experiments:
Type in all cases: cell-based
[1] = target: T1, CXCR4 (Homo sapiens, UniProt P61073); experiment: Luciferase reporter gene assay (protein kinase C-responsive promoter), COS-1 cells expressing CXCR4 but not DARC; details: COS-1 cells expressing CXCR4 alone; luciferase gene controlled by protein kinase C-responsive promoter
T1 construct: expressed in transfected cells; host or cells: COS-1 cells, transient DEAE-dextran transfection with pcDNA3.1 encoding CXCR4
T1 sequence (P61073 whole entry): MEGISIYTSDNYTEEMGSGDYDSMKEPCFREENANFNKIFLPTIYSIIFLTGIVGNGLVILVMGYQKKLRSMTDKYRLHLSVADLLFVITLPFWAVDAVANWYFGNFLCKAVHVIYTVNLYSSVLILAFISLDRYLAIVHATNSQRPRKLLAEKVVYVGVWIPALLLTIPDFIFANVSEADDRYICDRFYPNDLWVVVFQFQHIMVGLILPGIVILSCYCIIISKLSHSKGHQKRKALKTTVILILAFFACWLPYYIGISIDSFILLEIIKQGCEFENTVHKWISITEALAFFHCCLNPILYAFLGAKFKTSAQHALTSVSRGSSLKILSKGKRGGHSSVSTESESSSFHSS
Description: (§1) A second group of COS-1 cells were made to express DARC, but not CXCR4. A third group of COS-1 cells were made to express CXCR4, but not DARC. Signaling due to stromal cell derived factor 1 (SDF-1) and GRO-α was measured in a reporter gene assay using a luciferase gene controlled by a protein kinase C-responsive promoter.
(§2) Cell Culture and Transfection. COS-1 cells are maintained in Dulbecco's modified eagle's medium with 5% fetal calf serum and are seeded 1 day prior to transfection at 750,000 cells/100 mm dish. Cells are transfected with pcDNA3.1 (Invitrogen) encoding DARC (5 μg DNA/ml) or with pcDNA3.1 encoding CXCR4 (5 μg DNA/ml), or both using the DEAE-dextran method and maintained in Dulbecco's modified Eagle's medium with 10% fetal calf serum for 1 day at which time cells are harvested and seeded into 12-well plates at 100,000 cells/well or 24-well plates at 50,000 cells/well in Dulbecco's modified Eagle's medium with 5% fetal calf serum. Other cell lines, such as HEK-293 or CHO cells, can be stably transfected with DARC or CXCR4, or both.
(§3) Reporter Gene Assays. […] Agonists or agonists plus antagonists are added for four hours and the reporter activity measured. […]

[2] = target: T2, DARC and CXCR4 (Homo sapiens, UniProt Q16570); experiment: Luciferase reporter gene assay (protein kinase C-responsive promoter), COS-1 cells co-expressing DARC and CXCR4; details: single chemokine
T2 construct: expressed in transfected cells; host or cells: COS-1 cells co-transfected (DEAE-dextran) with pcDNA3.1 encoding DARC and pcDNA3.1 encoding CXCR4
T2 sequence (Q16570 1-336): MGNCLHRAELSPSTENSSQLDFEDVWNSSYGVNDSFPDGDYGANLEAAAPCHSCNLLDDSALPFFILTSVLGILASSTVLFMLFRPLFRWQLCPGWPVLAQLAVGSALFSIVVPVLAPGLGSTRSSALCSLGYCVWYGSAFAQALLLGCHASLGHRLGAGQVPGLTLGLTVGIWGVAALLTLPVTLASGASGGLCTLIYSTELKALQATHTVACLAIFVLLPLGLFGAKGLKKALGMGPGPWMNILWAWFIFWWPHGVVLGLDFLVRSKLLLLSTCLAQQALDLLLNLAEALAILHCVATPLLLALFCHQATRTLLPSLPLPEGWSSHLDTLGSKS
Description: as §1, §2, §3

[3] = system: DARC; experiment: Luciferase reporter gene assay (protein kinase C-responsive promoter), COS-1 cells expressing DARC but not CXCR4; details: COS-1 cells expressing DARC alone; luciferase gene controlled by protein kinase C-responsive promoter
Description: as §1, §2, §3

| Signaling in reporter gene assay via CXCR4 [1] | Signaling (gene transcription) in reporter gene assay [2] | Substance | Signaling in reporter gene assay via DARC [3] |
| --- | --- | --- | --- |
| did not signal | increase gene transcription | growth-related protein-α [GRO-α] | did not signal |
| signals weakly |  | stromal cell derived factor 1 [SDF-1] | does not signal |
